Usually Kd stands for a measure of binding affinity in units of concentration. In general, koff refers to the first-order rate constant of dissociation. The low end stands for a long-lived complex, the high end for a short-lived complex. Usually kon stands for a measure of how fast the partners come together. A high value points to fast association.

Common to all, as to assay: SPR; Biacore T200; about 300 to 5,000 RU of Ad virions immobilised on a CM5 chip, coagulation factors flowed over at four concentrations, 50 uL/min; running buffer 10 mM HEPES, 150 mM NaCl, 1 mM CaCl2, 0.5 mM MgCl2, 0.1% BSA, 0.05% polysorbate 20, pH 7.4; regeneration with 3 mM EDTA; global fit to a 1:1 kinetic interaction model, double referencing
Common to all, as to conditions: both partners purified

For experiment [1], the target named is T1, human coagulation factor X (human, UniProt P00742 41-488, gamma-carboxylated glutamate residues in the Gla domain).
T1 construct: coagulation factor X, human, plasma-derived; written here as one entry; also called human FX; FX; source: bought: Haematologic Technologies, Inc. (HCX-0050), plasma-derived

Experiment [2] concerns the target T2, human prothrombin (coagulation factor II) (human, UniProt P00734 44-622, gamma-carboxylated glutamate residues in the Gla domain).
T2 construct: prothrombin (FII), human, plasma-derived; also called human FII; FII; source: bought: Haematologic Technologies, Inc. (HCP-0010), plasma-derived

For experiment [3], the target named is T3, mouse coagulation factor X (mouse, UniProt O88947 41-481, gamma-carboxylated glutamate residues in the Gla domain).
T3 construct: coagulation factor X, mouse, plasma-derived; Pretreated with 125 uM GGACK (EGRCK); written here as one entry; also called mouse FX; source: bought: Haematologic Technologies, Inc. (MCX-5050), plasma-derived

In experiment [4] the target is T4, mouse prothrombin (coagulation factor II) (mouse, UniProt P19221 44-618, gamma-carboxylated glutamate residues in the Gla domain).
T4 construct: prothrombin (FII), mouse, plasma-derived; also called mouse FII
T4 sequence (P19221 44-618): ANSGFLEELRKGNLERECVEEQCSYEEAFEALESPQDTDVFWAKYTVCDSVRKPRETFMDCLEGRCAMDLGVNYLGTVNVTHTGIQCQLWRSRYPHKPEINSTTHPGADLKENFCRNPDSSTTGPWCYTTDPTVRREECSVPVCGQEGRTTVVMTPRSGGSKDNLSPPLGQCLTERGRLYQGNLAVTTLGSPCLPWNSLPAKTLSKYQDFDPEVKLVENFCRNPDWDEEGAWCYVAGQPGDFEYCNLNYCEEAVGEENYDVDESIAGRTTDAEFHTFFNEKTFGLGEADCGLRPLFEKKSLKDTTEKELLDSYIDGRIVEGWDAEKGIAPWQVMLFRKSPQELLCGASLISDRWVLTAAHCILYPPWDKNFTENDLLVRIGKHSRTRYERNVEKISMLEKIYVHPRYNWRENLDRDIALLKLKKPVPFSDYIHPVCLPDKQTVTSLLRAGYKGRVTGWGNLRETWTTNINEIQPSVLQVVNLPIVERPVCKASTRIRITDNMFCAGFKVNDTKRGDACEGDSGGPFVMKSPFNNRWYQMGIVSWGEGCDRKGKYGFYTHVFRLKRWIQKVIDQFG

For experiment [5], the target named is T5, bovine coagulation factor X (bovine, UniProt P00743 41-492, gamma-carboxylated glutamate residues in the Gla domain).
T5 construct: coagulation factor X, bovine, plasma-derived; Pretreated with 125 uM GGACK (EGRCK); written here as one entry; also called bovine FX; source: bought: Haematologic Technologies, Inc. (BCX-1050), plasma-derived

The target of experiment [6] is T6, bovine prothrombin (coagulation factor II) (bovine, UniProt P00735 44-625, gamma-carboxylated glutamate residues in the Gla domain).
T6 construct: prothrombin (FII), bovine, plasma-derived; also called bovine FII; source: bought: Haematologic Technologies, Inc. (BCP-1010), plasma-derived
T6 sequence (P00735 44-625): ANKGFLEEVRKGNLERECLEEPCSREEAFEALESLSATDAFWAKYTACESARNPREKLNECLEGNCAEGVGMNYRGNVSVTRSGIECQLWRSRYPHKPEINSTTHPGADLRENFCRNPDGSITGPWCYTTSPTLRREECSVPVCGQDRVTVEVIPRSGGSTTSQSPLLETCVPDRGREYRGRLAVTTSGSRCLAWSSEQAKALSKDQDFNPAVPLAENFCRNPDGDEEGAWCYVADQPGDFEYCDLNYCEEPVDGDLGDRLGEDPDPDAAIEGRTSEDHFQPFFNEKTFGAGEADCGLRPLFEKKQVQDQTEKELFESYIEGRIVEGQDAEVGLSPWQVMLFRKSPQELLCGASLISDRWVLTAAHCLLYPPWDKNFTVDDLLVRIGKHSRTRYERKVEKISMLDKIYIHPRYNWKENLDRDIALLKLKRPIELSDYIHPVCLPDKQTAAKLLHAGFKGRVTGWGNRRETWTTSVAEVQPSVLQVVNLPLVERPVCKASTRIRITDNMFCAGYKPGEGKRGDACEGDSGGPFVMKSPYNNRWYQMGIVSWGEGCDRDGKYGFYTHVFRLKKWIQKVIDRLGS

Experiment [7] has as its target T2, human prothrombin (coagulation factor …). This is another data set of the same source.

B1: hexon of wild-type human adenovirus type 6 (on virions) (natural protein)
chain: ATPSMMPQWSYMHISGQDASEYLSPGLVQFARATETYFSLNNKFRNPTVAPTHDVTTDRSQRLTLRFIPVDREDTAYSYKARFTLAVGDNRVLDMASTYFDIRGVLDRGPTFKPYSGTAYNALAPKGAPNSCEWEQNETAQVDAQELDEEENEANEAQAREQEQAKKTHVYAQAPLSGIKITKEGLQIGTADATVAGAGKEIFADKTFQPEPQVGESQWNEADATAAGGRVLKKTTPMKPCYGSYARPTNSNGGQGVMVEQNGKLESQVEMQFFSTSTNATNEVNNIQPTVVLYSEDVNMETPDTHLSYKPKMGDKNAKVMLGQQAMPNRPNYIAFRDNFIGLMYYNSTGNMGVLAGQASQLNAVVDLQDRNTELSYQLLLDSIGDRTRYFSMWNQAVDSYDPDVRIIENHGTEDELPNYCFPLGGIGITDTFQAVKTTAANGDQGNTTWQKDSTFAERNEIGVGNNFAMEINLNANLWRNFLYSNIALYLPDKLKYNPTNVEISDNPNTYDYMNKRVVAPGLVDCYINLGARWSLDYMDNVNPFNHHRNAGLRYRSMLLGNGRYVPFHIQVPQKFFAIKNLLLLPGSYTYEWNFRKDVNMVLQSSLGNDLRVDGASIKFDSICLYATFFPMAHNTASTLEAMLRNDTNDQSFNDYLSAANMLYPIPANATNVPISIPSRNWAAFRGWAFTRLKTKETPSLGSGYDPYYTYSGSIPYLDGTFYLNHTFKKVAITFDSSVSWPGNDRLLTPNEFEIKRSVDGEGYNVAQCNMTKDWFLVQMLANYNIGYQGFYIPESYKDRMYSFFRNFQPMSRQVVDDTKYKDYQQVGIIHQHNNSGFVGYLAPTMREGQAYPANVPYPLIGKTAVDSITQKKFLCDRTLWRIPFSSNFMSMGALTDLGQNLLYANSAHALDMTFEVDPMDEPTLLYVLFEVFDVVRVHRPHRGVIETVYLRTPFSAGNATT
With B1, the Kd was determined as 28 nM in experiment [1]; 2.7 nM in experiment [2]; 0.42 nM in experiment [3]; 9.9 nM in experiment [4]; 100 nM in experiment [5]; 75 nM in experiment [6]. Also, the koff in experiment [1] was 0.00326 s⁻¹; in experiment [2] it was 0.000182 s⁻¹; in experiment [3] it was 4.08e-05 s⁻¹; in experiment [4], 0.000575 s⁻¹; in experiment [5], 0.0147 s⁻¹; in experiment [6] it was 0.00395 s⁻¹. In addition, the kon was found to be 116000 M⁻¹ s⁻¹ in experiment [1]; 67000 M⁻¹ s⁻¹ in experiment [2]; 96600 M⁻¹ s⁻¹ in experiment [3]; 58200 M⁻¹ s⁻¹ in experiment [4]; 144000 M⁻¹ s⁻¹ in experiment [5]; 53000 M⁻¹ s⁻¹ in experiment [6].

B2: hexon of the E1/E3-deleted Ad5 vector Ad5.0 (wild-type Ad5 capsid, on virions) (natural protein, human adenovirus 5)
chain: ATPSMMPQWSYMHISGQDASEYLSPGLVQFARATETYFSLNNKFRNPTVAPTHDVTTDRSQRLTLRFIPVDREDTAYSYKARFTLAVGDNRVLDMASTYFDIRGVLDRGPTFKPYSGTAYNALAPKGAPNPCEWDEAATALEINLEEEDDDNEDEVDEQAEQQKTHVFGQAPYSGINITKEGIQIGVEGQTPKYADKTFQPEPQIGESQWYETEINHAAGRVLKKTTPMKPCYGSYAKPTNENGGQGILVKQQNGKLESQVEMQFFSTTEATAGNGDNLTPKVVLYSEDVDIETPDTHISYMPTIKEGNSRELMGQQSMPNRPNYIAFRDNFIGLMYYNSTGNMGVLAGQASQLNAVVDLQDRNTELSYQLLLDSIGDRTRYFSMWNQAVDSYDPDVRIIENHGTEDELPNYCFPLGGVINTETLTKVKPKTGQENGWEKDATEFSDKNEIRVGNNFAMEINLNANLWRNFLYSNIALYLPDKLKYSPSNVKISDNPNTYDYMNKRVVAPGLVDCYINLGARWSLDYMDNVNPFNHHRNAGLRYRSMLLGNGRYVPFHIQVPQKFFAIKNLLLLPGSYTYEWNFRKDVNMVLQSSLGNDLRVDGASIKFDSICLYATFFPMAHNTASTLEAMLRNDTNDQSFNDYLSAANMLYPIPANATNVPISIPSRNWAAFRGWAFTRLKTKETPSLGSGYDPYYTYSGSIPYLDGTFYLNHTFKKVAITFDSSVSWPGNDRLLTPNEFEIKRSVDGEGYNVAQCNMTKDWFLVQMLANYNIGYQGFYIPESYKDRMYSFFRNFQPMSRQVVDDTKYKDYQQVGILHQHNNSGFVGYLAPTMREGQAYPANFPYPLIGKTAVDSITQKKFLCDRTLWRIPFSSNFMSMGALTDLGQNLLYANSAHALDMTFEVDPMDEPTLLYVLFEVFDVVRVHRPHRGVIETVYLRTPFSAGNATT
notes: hexon of human adenovirus type 5, unchanged, as it stands in the capsid of the vector; Immobilised as whole vector virions; source: E1/E3-deleted Ad5 vector grown on 293 cells, virions purified by CsCl ultracentrifugation
In experiment [7], B2 came in with a Kd of 35 nM, a koff of 0.00317 s⁻¹ and a kon of 90500 M⁻¹ s⁻¹.

The values above are taken from paper PMC9536601, “Binding of adenovirus species C hexon to prothrombin and the influence of hexon on vector properties in vitro and in vivo” (PLoS Pathogens, 2022).
